The results in this text go back to paper PMC8547954, “Myopalladin knockout mice develop cardiac dilation and show a maladaptive response to mechanical pressure overload” (eLife, 2021).

Conditions in all cases: both partners purified
Assay [1] addresses T1, human MYPN C-terminal region including three Ig domains (MYPN C-term; Res. 813-1320), N-terminal 6xHis-tag (human, UniProt Q86TC9-1 813-1320, NT-647 dye via NHS-driven amino coupling (only where it was the labelled partner, Figure 1C)).
T1 construct: Unlabelled in assay a3, labelled with NT-647 in assay a4; also called MYPN C-terminal fragment; MYPN C-terminal domain; source: E. coli BL21-CodonPlus (DE3)-RIPL, purified (HisTrap, Superdex 75 SEC)
T1 sequence (looked up): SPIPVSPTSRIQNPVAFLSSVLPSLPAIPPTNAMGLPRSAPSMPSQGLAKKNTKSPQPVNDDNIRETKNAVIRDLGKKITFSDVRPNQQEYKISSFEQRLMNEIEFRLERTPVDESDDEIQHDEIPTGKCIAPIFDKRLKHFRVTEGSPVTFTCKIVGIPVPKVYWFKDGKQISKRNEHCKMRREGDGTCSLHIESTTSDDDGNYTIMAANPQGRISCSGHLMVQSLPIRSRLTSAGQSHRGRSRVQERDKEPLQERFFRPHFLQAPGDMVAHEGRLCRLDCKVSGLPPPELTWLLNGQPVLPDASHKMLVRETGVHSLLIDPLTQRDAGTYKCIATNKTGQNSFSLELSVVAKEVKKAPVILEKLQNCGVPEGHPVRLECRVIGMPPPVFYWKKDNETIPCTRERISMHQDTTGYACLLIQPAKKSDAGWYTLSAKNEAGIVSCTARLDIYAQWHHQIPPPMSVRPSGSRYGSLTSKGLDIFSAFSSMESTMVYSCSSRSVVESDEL
Kind of assay: MST; 400 nM NT-647-labelled MYPN C-term titrated with titin Ig Z4-Z5; 30 min at room temperature in 20 mM Tris-HCl pH 8, 150 mM NaCl, 5 mM EDTA, 4 mM DTT; Hill fit; full saturation reached; apparent.

The target of assay [2] is T1, human MYPN C-terminal region including …. The experiment in a line: MST; 450 nM NT-647-labelled titin Ig Z4-Z5 titrated with MYPN (up to 20 µM) or PALLD (up to 30 µM) C-term; 30 min at room temperature in 20 mM Tris-HCl pH 8, 150 mM NaCl, 5 mM EDTA, 4 mM DTT; Hill fit; saturation not reached, Kd could not be unequivocally determined; apparent.
The target of assay [3] is T2, PALLD C-terminal region (PALLD C-term; Res. 794-1123), N-terminal 6xHis-tag followed by a human rhinovirus 3C … (human, UniProt Q8WX93-9 794-1123).
T2 construct: numbers count on: NM_001166108.1; A 3C protease site follows the tag; also called homologous fragment of PALLD; PALLD C-terminal domain; source: E. coli BL21-CodonPlus (DE3)-RIPL, purified (HisTrap, Superdex 75 SEC)
T2 sequence (looked up): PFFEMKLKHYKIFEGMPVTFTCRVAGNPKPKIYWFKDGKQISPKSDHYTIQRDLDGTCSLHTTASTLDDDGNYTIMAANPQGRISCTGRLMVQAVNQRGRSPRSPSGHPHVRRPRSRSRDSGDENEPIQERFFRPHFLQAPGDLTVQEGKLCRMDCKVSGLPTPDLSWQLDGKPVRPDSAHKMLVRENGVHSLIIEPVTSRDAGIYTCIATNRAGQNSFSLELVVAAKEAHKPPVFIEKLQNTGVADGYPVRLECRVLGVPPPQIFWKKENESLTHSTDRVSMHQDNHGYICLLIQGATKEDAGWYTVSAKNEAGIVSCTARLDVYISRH
Described as above.

B1: titin Ig domains Z4-Z5 (Res. 942-1173), N-terminal 6xHis-tag (domain or fragment, human, UniProt Q8WZ42-1 942-1173, looked up)
chain: PPTLVSGLKNVTVIEGESVTLECHISGYPSPTVTWYREDYQIESSIDFQITFQSGIARLMIREAFAEDSGRFTCSAVNEAGTVSTSCYLAVQVSEEFEKETTAVTEKFTTEEKRFVESRDVVMTDTSLTEEQAGPGEPAAPYFITKPVVQKLVEGGSVVFGCQVGGNPKPHVYWKKSGVPLTTGYRYKVSYNKQTGECKLVISMTFADDAGEYTIVVRNKHGETSASASLLE
modifications: NT-647 dye via NHS-driven amino coupling (only where it was the labelled partner, Figure 1B)
notes: titin, human, Ig domains Z4-Z5, residues 942-1173 of NM_001256850.1; Labelled with NT-647 in assay a3, unlabelled in assay a4; also called titin Ig domain Z4-Z5 peptide; titin Ig domain Z4-Z5 fragment; source: E. coli BL21-CodonPlus (DE3)-RIPL, purified (HisTrap, Superdex 75 SEC)
Take B1: the Kd in assay [1] was determined as 2.8 ± 0.5 µM; in assay [2], 7.2 ± 2.6 µM; in assay [3] it was 6.1 ± 0.8 µM.
